Experimental data from patent publication US20060257938A1, “Method of screening for drugs that block ligand binding to a lipid binding protein” (priority 2005, published 2006).
Changes are numbered by the printed parent chain.

B1: 49A1, 72A (protein, listed as Rattus norvegicus)
chain: AFDGTWKVDRNENYEKFMEKMGINVVKRKLGAHDNLKLTITQEGNKFTAKESSNFRNIDVVFELGVDFAYSAADGTELTGTWTMEGNKLVGKFKRVDNGKELIAVREISGNELIQTYTYEGVEAKRIFKKE
modifications: PEPTIDE (1)...(131) wild-type rat intestinal fatty acid binding protein
B2: 49C1, 72A (protein, listed as Rattus norvegicus)
chain: B1 chain with A49C
modifications: PEPTIDE (1)...(131) wild-type rat intestinal fatty acid binding protein
B3: 102T, 72A (protein, listed as Rattus norvegicus)
chain: B1 chain with A49V, L102T
modifications: PEPTIDE (1)...(131) wild-type rat intestinal fatty acid binding protein
B4: 49D1, 72A (protein, listed as Rattus norvegicus)
chain: B1 chain with A49D
modifications: PEPTIDE (1)...(131) wild-type rat intestinal fatty acid binding protein
B5: 49F1, 72A (protein, listed as Rattus norvegicus)
chain: B1 chain with A49F
modifications: PEPTIDE (1)...(131) wild-type rat intestinal fatty acid binding protein
B6: 49G1, 72A (protein, listed as Rattus norvegicus)
chain: B1 chain with A49G
modifications: PEPTIDE (1)...(131) wild-type rat intestinal fatty acid binding protein
B7: 49H1, 72A (protein, listed as Rattus norvegicus)
chain: B1 chain with A49H
modifications: PEPTIDE (1)...(131) wild-type rat intestinal fatty acid binding protein
B8: 49I1, 72A (protein, listed as Rattus norvegicus)
chain: B1 chain with A49I
modifications: PEPTIDE (1)...(131) wild-type rat intestinal fatty acid binding protein
B9: 49K1, 72A (protein, listed as Rattus norvegicus)
chain: B1 chain with A49K
modifications: PEPTIDE (1)...(131) wild-type rat intestinal fatty acid binding protein
B10: 49L1, 72A (protein, listed as Rattus norvegicus)
chain: B1 chain with A49L
modifications: PEPTIDE (1)...(131) wild-type rat intestinal fatty acid binding protein
B11: 49M1, 72A (protein, listed as Rattus norvegicus)
chain: B1 chain with A49M
modifications: PEPTIDE (1)...(131) wild-type rat intestinal fatty acid binding protein
B12: 49N1, 72A (protein, listed as Rattus norvegicus)
chain: B1 chain with A49N
modifications: PEPTIDE (1)...(131) wild-type rat intestinal fatty acid binding protein
B13: 49P1, 72A (protein, listed as Rattus norvegicus)
chain: B1 chain with A49P
modifications: PEPTIDE (1)...(131) wild-type rat intestinal fatty acid binding protein
B14: 102V, 72A (protein, listed as Rattus norvegicus)
chain: B1 chain with A49V, L102V
modifications: PEPTIDE (1)...(131) wild-type rat intestinal fatty acid binding protein
B15: 49Q, 72A (protein, listed as Rattus norvegicus)
chain: B1 chain with A49Q
modifications: PEPTIDE (1)...(131) wild-type rat intestinal fatty acid binding protein
B16: 49Q1, 72A (protein, listed as Rattus norvegicus)
chain: B1 chain with A49Q
modifications: PEPTIDE (1)...(131) wild-type rat intestinal fatty acid binding protein
B17: 49R1, 72A (protein, listed as Rattus norvegicus)
chain: B1 chain with A49R
modifications: PEPTIDE (1)...(131) wild-type rat intestinal fatty acid binding protein
B18: 49S1, 72A (protein, listed as Rattus norvegicus)
chain: B1 chain with A49S
modifications: PEPTIDE (1)...(131) wild-type rat intestinal fatty acid binding protein
B19: 49T1, 72A (protein, listed as Rattus norvegicus)
chain: B1 chain with A49T
modifications: PEPTIDE (1)...(131) wild-type rat intestinal fatty acid binding protein
B20: 49W1, 72A (protein, listed as Rattus norvegicus)
chain: B1 chain with A49W
modifications: PEPTIDE (1)...(131) wild-type rat intestinal fatty acid binding protein
B21: 49Y1, 72A (protein, listed as Rattus norvegicus)
chain: B1 chain with A49Y
modifications: PEPTIDE (1)...(131) wild-type rat intestinal fatty acid binding protein
B22: 51A1, 72A (protein, listed as Rattus norvegicus)
chain: B1 chain with A49V, E51A
modifications: PEPTIDE (1)...(131) wild-type rat intestinal fatty acid binding protein
B23: 51C3, 72A (protein, listed as Rattus norvegicus)
chain: B1 chain with A49V, E51C
modifications: PEPTIDE (1)...(131) wild-type rat intestinal fatty acid binding protein

Experiment: Probe fluorescence ratio response to linolenic acid relative to ADIFAB2
Assay type: binding
Conditions: response relative to ADIFAB2
How it was run: (§1)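 Each fatty acid's response was expressed relative to ADIFAB2, the rI-FABP-L72A probe, as ΔR/ΔRreference. ΔR is the change in the background-corrected two-wavelength intensity ratio R=Fλ1/Fλ2 from its analyte-free baseline R0. Emission was read near about 420-480 nm for unbound and about 495-580 nm for FFA-bound probe.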

Molecule | DR/DR LNA
B1 | 1.68
B2 | −0.18
B3 | 0.24
B4 | 0.30
B5 | 1.18
B6 | 1.25
B7 | 1.54
B8 | 1.82
B9 | 1.68
B10 | 1.77
B11 | 1.37
B12 | 1.18
B13 | 1.53
B14 | 0.51
B15 | 0.55
B16 | 1.23
B17 | 1.70
B18 | 1.34
B19 | 0.64
B20 | 0.58
B21 | 1.44
B22 | 1.49
B23 | 1.47

Experiment: Probe fluorescence ratio response to oleic acid relative to ADIFAB2
Assay type: binding
Conditions: response relative to ADIFAB2
How it was run: as §1

Molecule | DR/DR OA
B1 | 1.60
B2 | −0.20
B3 | 0.26
B4 | 0.32
B5 | 1.14
B6 | 1.15
B7 | 1.39
B8 | 1.80
B9 | 1.51
B10 | 1.67
B11 | 1.30
B12 | 1.11
B13 | 1.40
B14 | 0.57
B15 | 0.56
B16 | 1.20
B17 | 1.56
B18 | 1.18
B19 | 0.67
B20 | 0.56
B21 | 1.34
B22 | 1.28
B23 | 1.35

Experiment: Probe fluorescence ratio response to palmitic acid relative to ADIFAB2
Assay type: binding
Conditions: response relative to ADIFAB2
How it was run: as §1

Molecule | DR/DR PA
B1 | 0.79
B2 | −0.18
B3 | 0.12
B4 | 0.16
B5 | 0.75
B6 | 0.64
B7 | 0.75
B8 | 1.16
B9 | 0.80
B10 | 1.00
B11 | 0.94
B12 | 0.74
B13 | 0.76
B14 | 0.35
B15 | 0.43
B16 | 0.69
B17 | 0.78
B18 | 0.66
B19 | 0.43
B20 | 0.35
B21 | 0.70
B22 | 0.70
B23 | 0.69

Experiment: Probe fluorescence ratio response to linoleic acid relative to ADIFAB2
Assay type: binding
Conditions: response relative to ADIFAB2
How it was run: as §1

Molecule | DR/DR LA
B1 | 1.72
B2 | −0.21
B3 | 0.26
B4 | 0.32
B5 | 1.14
B6 | 1.29
B7 | 1.58
B8 | 1.84
B9 | 1.71
B10 | 1.81
B11 | 1.37
B12 | 1.10
B13 | 1.59
B14 | 0.67
B15 | 0.58
B16 | 1.25
B17 | 1.75
B18 | 1.29
B19 | 0.67
B20 | 0.58
B21 | 1.51
B22 | 1.48
B23 | 1.55

Experiment: Probe fluorescence ratio response to arachidonic acid relative to ADIFAB2
Assay type: binding
Conditions: Arachidonic acid; response relative to ADIFAB2
How it was run: as §1

Molecule | DR/DR AA
B1 | 1.72
B2 | −0.13
B4 | 0.31
B5 | 1.18
B6 | 1.26
B7 | 1.47
B8 | 1.80
B9 | 1.64
B10 | 1.76
B11 | 1.36
B12 | 1.26
B13 | 1.57
B15 | 0.62
B16 | 0.92
B17 | 1.68
B18 | 1.27
B19 | 0.66
B20 | 0.58
B21 | 1.39
B22 | 1.38
B23 | 1.44

Same assay, conditions: arachidonic acid; response relative to ADIFAB2

Molecule | DR/DR AA
B3 | 0.21
B14 | 0.46
